# Assay results: the DeepSol protein solubility set
# Assay: soluble on expression in E. coli; label from the status in PepcDB or PDB records
row,Sequence,soluble on expression in E. coli
1,MGSDKIHHHHHHMATLTTNTPIATGSTFSAASLQFLNKLAQNNSRDWFKAHQAEYEETVRTPALQFIEQMQPSILALSPRLTAVPKKVGGSLMRPQRDSRFSKDKTPYKTNIGIQFRHFQGKDVHAPGLYLHIAEDGCFIAAGIWHPESKALNAIRTCIDENPNGYKKALQTLQNHGFTMDGDSLTRPPKGFDKNHPMLTELKRKDFIAVKNIAFEELCRPDAACFCAEQFAHCTQLMAYLCFALDLDF,not soluble
2,SNANRDSLFNDPNAPVLGNPEGDVTVVEFFDYNCPYCRRAMAEVQGLVDADPNVRLVYREWPILGEGSDFAARAALAARQQGKYEAFHWALMGMSGKANETGVLRIAREVGLDTEQLQRDMEAPEVTAHIAQSMALAQKLGFNGTPSFVVEDALVPGFVEQSQLQDAVDRARKAA,soluble
3,MSLDDQITNAAEKGVTDRFYGLIPNGYLFIENGLISAFGPMSALQENLTNSTAMSQIDDAIDAAGRLLTPALIDCHTHVVYGGHRALEFEMRLKGASYAEMAKAGGGIVSTVSATRSQSVEQLVQGALARVDALIAEGISLIEIKSGYGLDIETELRMLRAARSIEAARPVRVITSFLGAHAMPPGEDMSPEGYIEKTCIPALHQAHKEGLVDAVDGFCESIAFSADQIVPLFNVAAELGLPVKLHAEQLTRCGGSLLAASHKALSVDHVEYANKEDVRALAAAGCSAVLLPGAFYTLRETQKPPVALFRDQGVPMAIATDANPGSSPMTSLLLAMNMGCTLFGMTPYEALAGVTRNAARALGVSDSGMLRPGLRADLALWDVAHPAELAYRIGFNPLHRRIFGGQIAEGHHHHHH,soluble
4,MATFNSYTVDEIREIVDPDHPETLLEQAKGWAEMADLLSEYGVLLEQRLELVEDSWTGDAARLYFDEVKRMQEYIEESAERATTNAGLWFLIGTLAGIAKHDVSYIHKLWKDLDNVTDAVGLGFILEAIGVDKAVEDFKRMPYDVASRQIMEATATAAEESYSQMRDFEEFKPPPDVDGSGPTLQSVSAVAPPGGAVSLPSTTIVSNAAMPPLGPVAMRPVVPGVIGSRPGMTSMPRPMMGPGHTVRPVIGQRTGESQQTKTPGRLIGRYGVVSATPDVDMRDPKASRIHYGGDDVNRGVIKNNDPQRAAEEARFKLEEEVLRLRERAFAHRADDLTPAHTQHVLPGIVGDDSGWDRKTHDPGPVAFEMRRRPDRDDDAWTVI,not soluble
5,MEEMRDNDVPVQQALFDMGPDEEVGYRVPIACQVAGITYRQLDYWARTKLVEPTIRTARGSGSQRLYSFKDILVLKIVKRLLDTGISLQNIRLAVDKLRNRGVDDLAEITLVSDGTTVYECRSNEEVIDLLGGGQGVFGIAVPGIVRELTGTISSFPSEKISDFLSNSPAAGGIDELAARRLRKTS,not soluble
6,MQSTATYGSTISSGTSRTLKITEIGGSNLTSGMSPFGGHAASAIRESRTREKKEMSELNDRLASYIEKVRFLEAQNRKMEKDLNLLRGKWGHDSTSVKVMYETELRSAKDLIADSDKERAQLEDQIKKLVEELNNYRNKLHEAERGADVTRKELDNVLGRLGALEAEIELLKRRISLMEESIGHLKRENHRMIDSLHHARIFQAVEQETLNRIDYQNQVQTLLEECDFIRRIHDSEIHDLLAMASRDTTVENREYFKNELSSAIREIRSEYDHVSNTTRTDIESWYKLKVQEIHTQNSRNCLEQNYAREEVKRLRTTLGDMRGKMADLEGRNLLLEKQIEDLNYQMEEDMRSYEQSLNDKDTSINKLRDESKILMVELQMLIDTKQTLDAEIVIYRKMLDGEENRAGLRQLVEQVVKTTSIHQTKEIESLRVLKGETTSHSSYSRSAKGNIAIQEAEPSGKYIVLENISRRDENIGDWKLRRKIAGKREIVFTFPREFTLRAQKSVKIFARGQGVHSPPDSLVYDLEDSFGTGNDVVTTLYNKEGEDRASHSQRASHT,not soluble
7,MSESQLRKGAVELIVLGLLSSRPSYGGQLVERFREEAGLEISTGTLYPLLARLRKSGLVVTAWEESPVGPPRKIYKLAKPGKNRLLQMRREWEALDCAVKRTTQKGIR,not soluble
8,MAHHHHHHMGTLEAQTQGPGSMVNWNALRSKAIEVSRHAYAPYSGFPVGAAALVDDGRTVTGCNVENVSYGLGLCAECAVVCALHSGGGGRLVALSCVGPDGGVLMPCGRCRQVLLEHGGPELLIDHAHGPRPLRELLPDAFGPDDLGRR,soluble
9,MPLDGEYEPSPTQWVREQVERYESSGGTEGTTLMDTGLPVIVLTTRGARSGKLRKTPLMRVEHEGRYAVVASLGGAPKHPVWYFNVKADPRVELQDGPVKQDMTAREVTGAEKARWWERAVAAYPSYADYQKKTEREIPVFVLEPSHAG,not soluble
10,MNYLEGVGSKKGGGGIASESQFNLQRRKEVESLLSKGENVPYTFQDEKDDQVRSNPYIYKNHSGKLVCKLCNTMHMSWSSVERHLGGKKHGLNVLRRGISIEKSSLGREGQTTHDFRQQQKIIEAKQSLKNNGTIPVCKIATVKNPKNGSVGLAIQVNYSSEVKENSVDSDDKAKVPPLIRIVSGLELSDTKQKGKKFLVIAYEPFENIAIELPPNEILFSENNDMDNNNDGVDELNKKCTFWDAISKLYYVQFFFKQAEQEQADV,soluble
11,MGSDKIHHHHHHMTVSMEQLEAFVAAAEHGSFSAAGRALRKAQSAVSTQVSNLEEDLGLELFSRQGRNPTLTAAGERLLSEARLILDRREHLIGVAASFEAHVEKRLVVAIDELYPEHALGELFAEFAVHFPHVELELLFPMMEDVSRLVLDGKADIGVMWRQEDLPAELGFHTIGWVQLKLVCGRNHPLANAVVGWEDLKRHRQIMVTVRTEGMERHRLRVAAEVWWVESHWVILQILKQGIGWALIPAHILARSPVAQDLAIPALQFDDGAHPVALELVWHKQRPSGPAATWLRKRFATTKIDMVAE,not soluble
12,MAEVRARVDFKVGAKSNIDAEILSFRGLKTDKEHVAVIFKQADQTQDTPLVRMHSECLTGDVFHSSRCDCGEQLEETIQRMGESGGVILYLRQEGRGIGLYNKIDAYRLQSQGMNTYEANNHLGFDDDLRDFTEAAQMLEALGIKKIRLVTNNPKKIRELAEYGIEIVEVVNTSAHIKDGNENYLRAKVSHGKHNLKVLEHHHHHH,soluble
13,MGSDKIHHHHHHMHGKLVEVADGVYAYIQGRGEWFVNNAGLIVGEEFSVVVDSVCNEQRAKEMISQFREVTAKDFRILINTHGHPDHVWTNHLFDAVAVAHEMGRQETLMAFVEIYQSLFPDLDFSGAKITPQNITFESRMKLYNDAEMQIIHPGVAHTRGDCYIYIPQKKVVFCGDLLFAKPCTPLAVGGSVRGSVNALRELLNLDAKIYVPGHGGLAGEEHLVEAIEYFEFVWEEAKKRHERGMGWYEAAMDIDLGEYAKWSEAERIVGNVARAYAEIEGRELEFAELVEVARKMLEYGGGRK,not soluble
14,MWKTASDKGLGHLLRDVWSLLNEEERELLDKEIQPFPCKKASTVFSEGDIPNNLFYLYEGKIKILREGVYGRFHISRIVKPGQFFGMRPYFAEETCSSTAIAVENSKVLAIPVEAIEALLKGNTSFCRYFLKALAKELGYAERRTVTLTQKHVRGRLAETLLILKENFGFENDGATLSIYLSREELATLSNMTVSNAIRTLSTFVSERMLALDGKRIKIIDCDRLQKTARSG,soluble
15,MGSDKIHHHHHHMPSIQELENFIIYGKVRNFTLAANQANITQSAFSFQMKKLEETLGVKLILRSNRGSSLTPEGEIFYKKISEILPELVGVIYEFQQINGEKAIELKVGVLTSLGDILMNQHVNYFQKNKNILITVYSMEKNELIRALNNGKIDIASTFLFDDETLENFEKSLFRKDKIVYYAPKIKEISGTIKRDNMLKVPLVKYPPDNFMNKMIDQYFNIERKMPTVAAKLPSPYAFIEYCKQDTAGAFITERLLNTLGFKYKQEYFNIDPPYEIKAFLLYKKENPKYSAIKIFTDYVVKLNQRDS,not soluble
16,MAHHHHHHMAWTCSALSNASMIQNLERAALLSTPAIIASLQRVDRGWFVPDGMRSSAYRDEPLSLGHGATISAPHMHAIMLELLSPFLLSTPGSLPKAVLDIGSGSGYLTAILADICGDGSRVVGVEHVVELQERSLKVVLQHFPSWVNEGRITFINGDGRDISKLFHPHTAMFDVIHVGAAAASVPKDYLEAIKPGGCLVIPVGKENEVQHLHLYTKDEKGTITKKTHGGVSFVPLTSLRHQKNRS,soluble
17,MSLARPLSFHEDRLFPSDPATRSYARGLYALVKDLPIISPHGHTDPSWFATNAPFQDATDLLLAPDHYLFRMLYSQGVSLDALKVRSKAGVPDTDPREAWRVFASHFYLFRGTPSWVWLNHVFSQVFGFTEFLEASNADDYFDRITAALATDAFRPRALFDRFNIETLATTEGPHESLQHHAAIRESGWGGHVITAYRPDAVIDFEDERSPRAFERFAETSGQDVYSWKSYLEAHRLRRQAFIDAGATSSDHGHPTAATADLSDVEAEALFNSLVKGDVTPEKAELFRAQMLTEMAKMSLDDGLVMQIHPGSHRNHNVGLLNSHGRDKGADIPMRTEYVDALKPLLTRLGNDPRLSIILFTLDETTYSRELAPLAGHYPVLKLGPSWWFHDSPEGMMRFREQVTETAGFYNTVGFNDDTRAFLSIPARHDVARRVDSAFLARMVAEHRMDLVEAEELIVDLTYNLPKKAYKLDQRPDWARPATLRAAAEEGHHHHHH,soluble
18,MAYEDLREFIGRLEDKGELARVKHEVSPILEMSEVADRTVKAGGKALLFERPKGYDIPVFMNAFGTERRMKLALEVERLEEIGERLLSALEFRPSSFMDALKGVGMLKDFMSFIPKKTGKAPCKEVVAESLDKFPILKCWPKDAGRFITFPVVITKDPETGEMNAGMYRMQVFDGKTTGMHWQIHKHGAEHFRKMAEKGGGKIEVAVAIGVDPATLYAATAPLPSGISEFMFAGFIRKERLKVTECETVDLLVPANAEIILEGYVRVDEMRVEGPFGDHTGYYTPPEPYPVFHITHITHRENPIYHATVVGKPPMEDAWLGKATERIFLPILRMMHPEIVDINLPVEGAFHNLAIVSIKKRYPGQAKKVMYAIWGTGMLSLTKIVVVVDDDVNVHDMREVVWAVTSRFDPARDVVILPPSPTDSLDHSAYIPNLAGKLGIDATKKWRDEGYEREWPDVVEMDAETKRKVDAIWNEIRNMVLAAALEHHHHHH,not soluble
19,MGSDKIHHHHHHMMSFREDKLLATNVPMRIVSLISKINEYKGKQVLYNQQAPEVLNTLKNVAIIQSTRASNSLEGITIKDTRLIDIMQNKVQPANRSEGEIAGYRDVLATIHSSYDAIPVKPSILLQFHRDLYRFISLEGGSWKNSDNAIEEVYPDGSKFVRFNPVSSFATPGAIEELCKFYNQYSNSGEIDSLMLISATILDFLCIHPFCDGNGRMARLLTLLLLYKEGYEVGRFISLEQIIEESKDAYYDTLYQSSQNWHEGKHDLLIWSEYLLGIILAAYKELMDRVGKVSRARGNKAMRVEETIDHFVSNFSINDIRRRCPDISPSTINRVLAKLRDANKIEVLGIGRGAKWKKNY,not soluble
20,MSRLRSTPIPGTRDSYTQVDFNLGFHVRHYDVSLDYVVAPNRLKAVVTLSMDTYQPLRSLTLDLSDALTVKSVTAQGTSAVAVRVQKFRHRNHKLRISFTEEIPVDQEFKITVTYSGNPRPIRSTWGLIGWEELSNGSLVASQPNGARSWLPCDDTPDEK,not soluble
21,MAHHHHHHMKSMRAVTMRAFGDVDVMHISEVTGVSLSRPSDVIIRVMAAGVNRADVSQRQGHYPPPKGSSEILGMEVSGVVEKVGENVKRFKEGDRVMALLTGGGYAEMAVAHEGSVMKIPEGYSFVEAAAIPEAFLTAWQALKLHGNLQKGQHMLFHAGASGVGTAALQLAEKYFRATAIATCSSGKVEFCKRFAKFVVDRSPDASGKCFSSKVRDAVKGETVNLIVDPVVGGTYLQEDGEVLAQDGKVVLLAFMGGAKVSLDVMPFFRKRASVIFSKLRDQTDEYKEALVRSFEEEVIPYMTRREIVPVVQCTYALEEVAAAHKLMENNKSNGKVILTVGKAE,soluble
